T1: KCNE4-loopBAD-GFP (UniProt Q9WTW3 1-170, biotin on the loopBAD tag (BirA biotin ligase co-expressed))
T1 construct: KCNE4; also called KCNE4-pEGFP with loopBAD; KCNE4-GFP; source: HEK-293, electroporated together with BirA, on the cell surface; not shown: loopBAD (biotin acceptor domain), N-terminal, kept
T1 sequence (looked up): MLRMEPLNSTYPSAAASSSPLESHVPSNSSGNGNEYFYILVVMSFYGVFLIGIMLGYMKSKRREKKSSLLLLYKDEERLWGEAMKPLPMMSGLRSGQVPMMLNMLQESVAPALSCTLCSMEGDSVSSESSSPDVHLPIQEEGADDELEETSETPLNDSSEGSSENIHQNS


Tests used:
[1] = molecular target: the molecule itself; experiment: counting of GFP bleaching steps of single spots (TIRF microscopy); live HEK-293 cells with Kv1.3-loopBAD-GFP and BirA; biotinylated channels at the cell surface immobilised with NeutrAvidin (50 nM) on biotin-collagen-coated glass; step distribution fitted to a binomial with p = 0.67
KCNE4-loopBAD-GFP = molecular target: T1, KCNE4-loopBAD-GFP; experiment: counting of GFP bleaching steps of single spots (TIRF microscopy); live HEK-293 cells with KCNE4-loopBAD-GFP, Kv1.3-Apple and BirA; biotinylated KCNE4 at the cell surface immobilised with NeutrAvidin (50 nM); motionless GFP spots colocalising with Kv1.3-Apple; conditions: partners not purified

stoichiometry N (KCNE4-loopBAD-GFP) [KCNE4 per Kv1.3 channel] | Binder | stoichiometry N [1]
– | Kv1.3-loopBAD-GFP (natural protein, UniProt P15384 1-525, looked up, biotin on the loopBAD tag (BirA biotin ligase co-expressed), voltage-gated potassium channel Kv1.3; also called GFP-Kv1.3-loopBAD; pEGFP-Kv1.3 with loopBAD; source: HEK-293, electroporated together with BirA, on the cell surface; not shown: loopBAD (biotin acceptor domain), internal (first extracellular loop), kept) MTVVPGDHLLEPEAAGGGGGDPPQGGCVSGGGCDRYEPLPPALPAAGEQDCCGERVVINISGLRFETQLKTLCQFPETLLGDPKRRMRYFDPLRNEYFFDRNRPSFDAILYYYQSGGRIRRPVNVPIDIFSEEIRFYQLGEEAMEKFREDEGFLREEERPLPRRDFQRQVWLLFEYPESSGPARGIAIVSVLVILISIVIFCLETLPEFRDEKDYPASPSQDVFEAANNSTSGASSGASSFSDPFFVVETLCIIWFSFELLVRFFACPSKATFSRNIMNLIDIVAIIPYFITLGTELAERQGNGQQAMSLAILRVIRLVRVFRIFKLSRHSKGLQILGQTLKASMRELGLLIFFLFIGVILFSSAVYFAEADDPSSGFNSIPDAFWWAVVTMTTVGYGDMHPVTIGGKIVGSLCAIAGVLTIALPVPVIVSNFNYFYHRETEGEEQAQYMHVGSCQHLSSSAEELRKARSNSTLSKSEYMVIEEGGMNHSAFPQTPFKTGNSTATCTTNNNPNSCVNIKKIFTDV | 4
≤ 4 | Kv1.3-Apple (natural protein, UniProt P15384 1-525, looked up, voltage-gated potassium channel Kv1.3; also called Kv1.3 tagged with mApple; source: HEK-293, electroporated, on the cell surface) MTVVPGDHLLEPEAAGGGGGDPPQGGCVSGGGCDRYEPLPPALPAAGEQDCCGERVVINISGLRFETQLKTLCQFPETLLGDPKRRMRYFDPLRNEYFFDRNRPSFDAILYYYQSGGRIRRPVNVPIDIFSEEIRFYQLGEEAMEKFREDEGFLREEERPLPRRDFQRQVWLLFEYPESSGPARGIAIVSVLVILISIVIFCLETLPEFRDEKDYPASPSQDVFEAANNSTSGASSGASSFSDPFFVVETLCIIWFSFELLVRFFACPSKATFSRNIMNLIDIVAIIPYFITLGTELAERQGNGQQAMSLAILRVIRLVRVFRIFKLSRHSKGLQILGQTLKASMRELGLLIFFLFIGVILFSSAVYFAEADDPSSGFNSIPDAFWWAVVTMTTVGYGDMHPVTIGGKIVGSLCAIAGVLTIALPVPVIVSNFNYFYHRETEGEEQAQYMHVGSCQHLSSSAEELRKARSNSTLSKSEYMVIEEGGMNHSAFPQTPFKTGNSTATCTTNNNPNSCVNIKKIFTDV | –

From paper PMC7290415, “Functional Consequences of the Variable Stoichiometry of the Kv1.3-KCNE4 Complex” (Cells, 2020)
